Test results: US20240409906, “INTEGRASES, LANDING PAD ARCHITECTURES, AND ENGINEERED CELLS COMPRISING THE SAME” (Asimov Inc., published 2024)

Assays:
Settings in all cases: tags: C-terminal GS linker-SV40 NLS
Int16 = molecular target: T1, Int16 (Enterococcus faecalis D32); assay: cell_activity
T1 chain: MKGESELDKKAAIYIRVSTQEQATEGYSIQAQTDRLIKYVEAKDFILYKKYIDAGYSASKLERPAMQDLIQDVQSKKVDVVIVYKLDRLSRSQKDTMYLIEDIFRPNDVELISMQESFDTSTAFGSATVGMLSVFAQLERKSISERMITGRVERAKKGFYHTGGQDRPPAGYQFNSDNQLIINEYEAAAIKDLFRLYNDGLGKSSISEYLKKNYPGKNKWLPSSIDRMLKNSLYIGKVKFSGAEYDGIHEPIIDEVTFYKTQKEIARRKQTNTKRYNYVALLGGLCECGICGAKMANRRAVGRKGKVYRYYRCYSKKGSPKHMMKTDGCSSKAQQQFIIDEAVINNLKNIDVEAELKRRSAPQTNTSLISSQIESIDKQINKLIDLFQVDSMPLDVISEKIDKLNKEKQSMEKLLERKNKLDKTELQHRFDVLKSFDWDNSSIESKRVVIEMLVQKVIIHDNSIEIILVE

Int13 = molecular target: T2, Int13 (Bacillus cytotoxicus NVH 391-98); assay: cell_activity; attB x attP EGFP inversion reporter, HEK293FT
T2 chain: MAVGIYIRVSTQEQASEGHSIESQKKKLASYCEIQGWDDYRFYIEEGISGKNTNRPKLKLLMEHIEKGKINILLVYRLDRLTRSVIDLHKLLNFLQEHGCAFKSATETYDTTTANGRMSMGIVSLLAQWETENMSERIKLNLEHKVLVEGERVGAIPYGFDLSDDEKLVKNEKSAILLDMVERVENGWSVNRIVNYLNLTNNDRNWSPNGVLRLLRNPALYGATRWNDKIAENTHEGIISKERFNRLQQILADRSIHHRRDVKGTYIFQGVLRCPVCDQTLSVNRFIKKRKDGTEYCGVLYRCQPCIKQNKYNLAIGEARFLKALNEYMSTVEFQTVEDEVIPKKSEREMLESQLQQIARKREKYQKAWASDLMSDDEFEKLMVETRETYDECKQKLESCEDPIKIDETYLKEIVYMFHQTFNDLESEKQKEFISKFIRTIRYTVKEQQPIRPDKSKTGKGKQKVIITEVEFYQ

Int18 = molecular target: T3, Int18 (Streptococcus pneumoniae JJA); assay: cell_activity
T3 chain: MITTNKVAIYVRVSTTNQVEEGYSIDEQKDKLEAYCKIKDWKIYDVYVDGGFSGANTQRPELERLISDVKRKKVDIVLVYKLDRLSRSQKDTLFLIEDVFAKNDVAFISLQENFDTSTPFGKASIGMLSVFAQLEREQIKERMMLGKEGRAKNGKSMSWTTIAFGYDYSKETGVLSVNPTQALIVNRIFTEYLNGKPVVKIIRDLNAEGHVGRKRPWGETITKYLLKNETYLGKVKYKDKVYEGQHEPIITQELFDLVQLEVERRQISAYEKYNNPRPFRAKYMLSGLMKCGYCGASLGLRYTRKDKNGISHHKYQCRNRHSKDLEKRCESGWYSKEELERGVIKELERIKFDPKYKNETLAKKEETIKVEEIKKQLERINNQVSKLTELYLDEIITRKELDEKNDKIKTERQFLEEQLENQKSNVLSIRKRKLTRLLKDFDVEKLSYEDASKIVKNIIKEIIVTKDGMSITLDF

Int14 = molecular target: T4, Int14 (Listeria innocua Clip11262); assay: cell_activity; attB x attP EGFP inversion reporter, HEK293FT
T4 chain: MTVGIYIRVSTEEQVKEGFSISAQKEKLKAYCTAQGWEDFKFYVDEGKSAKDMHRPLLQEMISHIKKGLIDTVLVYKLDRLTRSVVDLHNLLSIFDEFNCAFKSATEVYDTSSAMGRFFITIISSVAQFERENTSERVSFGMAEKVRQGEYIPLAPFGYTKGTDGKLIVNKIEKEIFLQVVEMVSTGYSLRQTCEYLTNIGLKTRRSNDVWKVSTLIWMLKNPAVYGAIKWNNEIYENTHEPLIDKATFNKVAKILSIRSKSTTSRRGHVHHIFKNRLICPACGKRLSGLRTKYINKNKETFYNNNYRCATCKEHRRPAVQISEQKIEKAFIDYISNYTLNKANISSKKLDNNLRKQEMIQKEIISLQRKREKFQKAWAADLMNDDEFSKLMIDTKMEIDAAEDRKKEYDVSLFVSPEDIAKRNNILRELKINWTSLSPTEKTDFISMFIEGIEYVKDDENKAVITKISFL

Int22 = molecular target: T5, Int22 (Geobacillus thermoglucosidasius C56-YS93); assay: as above
T5 chain: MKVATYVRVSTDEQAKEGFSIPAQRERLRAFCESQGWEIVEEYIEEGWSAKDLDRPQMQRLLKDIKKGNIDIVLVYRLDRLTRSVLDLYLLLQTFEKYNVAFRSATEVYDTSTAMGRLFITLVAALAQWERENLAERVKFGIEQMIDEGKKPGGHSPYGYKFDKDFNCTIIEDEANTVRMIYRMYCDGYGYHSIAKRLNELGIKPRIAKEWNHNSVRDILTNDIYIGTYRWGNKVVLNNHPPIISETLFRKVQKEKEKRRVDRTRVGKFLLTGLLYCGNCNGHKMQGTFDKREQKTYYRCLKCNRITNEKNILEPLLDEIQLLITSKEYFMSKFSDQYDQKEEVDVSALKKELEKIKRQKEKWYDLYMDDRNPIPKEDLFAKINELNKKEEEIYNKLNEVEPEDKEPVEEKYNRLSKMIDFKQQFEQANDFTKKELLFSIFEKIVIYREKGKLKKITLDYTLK

Int15 = molecular target: T6, Int15 (Listeria monocytogenes SLCC2372 (phage …)); assay: cell_activity
T6 chain: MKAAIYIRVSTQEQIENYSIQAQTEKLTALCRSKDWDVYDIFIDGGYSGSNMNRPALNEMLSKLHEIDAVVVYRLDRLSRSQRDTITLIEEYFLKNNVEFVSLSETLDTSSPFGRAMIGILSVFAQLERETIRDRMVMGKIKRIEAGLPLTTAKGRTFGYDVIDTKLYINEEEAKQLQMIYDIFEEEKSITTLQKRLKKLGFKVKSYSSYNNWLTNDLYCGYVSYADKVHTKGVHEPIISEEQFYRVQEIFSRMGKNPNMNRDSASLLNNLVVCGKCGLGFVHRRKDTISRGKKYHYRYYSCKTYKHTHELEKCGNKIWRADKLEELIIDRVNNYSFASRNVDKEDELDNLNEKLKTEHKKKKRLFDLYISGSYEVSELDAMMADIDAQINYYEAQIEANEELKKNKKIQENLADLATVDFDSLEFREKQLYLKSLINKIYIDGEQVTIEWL

Int21 = molecular target: T7, Int21 (Streptococcus mitis B6); assay: cell_activity; attB x attP EGFP inversion reporter, HEK293FT
T7 chain: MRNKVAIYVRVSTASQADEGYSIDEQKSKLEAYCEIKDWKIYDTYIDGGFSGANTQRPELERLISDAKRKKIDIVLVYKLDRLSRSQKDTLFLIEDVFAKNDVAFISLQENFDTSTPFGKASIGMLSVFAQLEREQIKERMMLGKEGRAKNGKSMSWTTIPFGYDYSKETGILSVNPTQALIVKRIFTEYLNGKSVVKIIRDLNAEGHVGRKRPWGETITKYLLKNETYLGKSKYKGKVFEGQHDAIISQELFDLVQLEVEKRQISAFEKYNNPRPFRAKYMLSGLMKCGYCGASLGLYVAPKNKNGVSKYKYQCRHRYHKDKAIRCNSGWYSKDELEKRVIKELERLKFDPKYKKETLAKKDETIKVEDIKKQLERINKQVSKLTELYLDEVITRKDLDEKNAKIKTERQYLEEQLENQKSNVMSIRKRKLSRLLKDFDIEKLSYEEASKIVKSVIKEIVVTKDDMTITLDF

B1: Int16 attP (dsDNA)
DNA 1: GTATCTTGATGTACAACATTACTCTTTATTTTCAAATACAGAATAATGTTGCATATAATATT
DNA 2: AATATTATATGCAACATTATTCTGTATTTGAAAATAAAGAGTAATGTTGTACATCAAGATAC
Int16
  binding signal: 0.21 fraction of Bxb1

B2: Int13 attB (dsDNA)
DNA 1: CGCATACATTGTTGTTGTTTTTCCAGATCCAGTTGGTCCTGTAAATATAAGCAATCCATGTGAGT
DNA 2: ACTCACATGGATTGCTTATATTTACAGGACCAACTGGATCTGGAAAAACAACAACAATGTATGCG
Int13
  binding signal: 0.295 fraction of Bxb1

B3: Int18 attB (dsDNA)
DNA 1: TCTGGTGTAGACGTTAAACGTCCAATCAAGATAACTTTATTATACATATTTTCTTCCTCCTA
DNA 2: TAGGAGGAAGAAAATATGTATAATAAAGTTATCTTGATTGGACGTTTAACGTCTACACCAGA
Int18
  binding signal: 1.76 fraction of Bxb1

B4: Int14 attP (dsDNA)
DNA 1: TTATATAAAATAGTGTTTTTGTAAAGTACACATCACCATATTTGACAAAAAACCTATAAATA
DNA 2: TATTTATAGGTTTTTTGTCAAATATGGTGATGTGTACTTTACAAAAACACTATTTTATATAA
Int14
  binding signal: 0.248 fraction of Bxb1

B5: Int22 attP (dsDNA)
DNA 1: TTATAAACCTGTTTTAAAGTTAACTTTACATGCCTAACATTAACTCTTATACAGGTTAAGGT
DNA 2: ACCTTAACCTGTATAAGAGTTAATGTTAGGCATGTAAAGTTAACTTTAAAACAGGTTTATAA
Int22
  binding signal: 0.945 fraction of Bxb1

B6: Int15 attB (dsDNA)
DNA 1: CTGTAACTTTTTCGGATCAAGCTATGAGGGACGCAAAGAGGGAACTAAACACTTAATTGGTG
DNA 2: CACCAATTAAGTGTTTAGTTCCCTCTTTGCGTCCCTCATAGCTTGATCCGAAAAAGTTACAG
Int15
  binding signal: 1.86 fraction of Bxb1

B7: Int18 attP (dsDNA)
DNA 1: TATTTCTGTATTTTAGTCAAAGTAATTAAGATAAGTTAGAGTTAGTAACAGTATTTTAACTT
DNA 2: AAGTTAAAATACTGTTACTAACTCTAACTTATCTTAATTACTTTGACTAAAATACAGAAATA
Int18
  binding signal: 1.76 fraction of Bxb1

B8: Int21 attB (dsDNA)
DNA 1: TAGGAGGAAAAAATATGTATAATAAAGTTATCATGATTGGGCGTTTGACGTCTACACCAGAAT
DNA 2: ATTCTGGTGTAGACGTCAAACGCCCAATCATGATAACTTTATTATACATATTTTTTCCTCCTA
Int21
  binding signal: 0.184 fraction of Bxb1

B9: Int15 attP (dsDNA)
DNA 1: TTGTTTAGTCCCTCGTTTTCTCTCGTTGGACGGAGACGAATCGAGAAACTAAAATTATAAAT
DNA 2: ATTTATAATTTTAGTTTCTCGATTCGTCTCCGTCCAACGAGAGAAAACGAGGGACTAAACAA
Int15
  binding signal: 1.86 fraction of Bxb1

B10: Int16 attB (dsDNA)
DNA 1: TTCTGGACCATGATGCGCCACTTCCGAAATTTCAAAAAGATCAGTGGTCAAACGGCTCATTA
DNA 2: TAATGAGCCGTTTGACCACTGATCTTTTTGAAATTTCGGAAGTGGCGCATCATGGTCCAGAA
Int16
  binding signal: 0.21 fraction of Bxb1

B11: Int21 attP (dsDNA)
DNA 1: GTTAATAATATGTATTTAAGTCTAACTTATCATGACAAATTTGACTAAAATACAAAAAGGC
DNA 2: GCCTTTTTGTATTTTAGTCAAATTTGTCATGATAAGTTAGACTTAAATACATATTATTAAC
Int21
  binding signal: 0.184 fraction of Bxb1

B12: Int13 attP (dsDNA)
DNA 1: CAATAACGGTTGTATTTGTAGAACTTGACCAGTTGTTTTAGTAACATAAATACAACTCCGAATA
DNA 2: TATTCGGAGTTGTATTTATGTTACTAAAACAACTGGTCAAGTTCTACAAATACAACCGTTATTG
Int13
  binding signal: 0.295 fraction of Bxb1

B13: Int14 attB (dsDNA)
DNA 1: TTATTGCAAGAAAAATGGGTTATAAGTACACATCAGGTTATAGTAATATCGAAAAAGGAAGC
DNA 2: GCTTCCTTTTTCGATATTACTATAACCTGATGTGTACTTATAACCCATTTTTCTTGCAATAA
Int14
  binding signal: 0.248 fraction of Bxb1

B14: Int22 attB (dsDNA)
DNA 1: CAAGAAACGTTCCGTCTGTTTGTGTCAGCTGCGCGAAATTAATGACCGGATCGTTTGTTCC
DNA 2: GGAACAAACGATCCGGTCATTAATTTCGCGCAGCTGACACAAACAGACGGAACGTTTCTTG
Int22
  binding signal: 0.945 fraction of Bxb1
